Paper PMC11844742, “Structural basis of aquaporin-4 autoantibody binding in neuromyelitis optica” (Science Advances, 2025)
Several values for one entry are separate records, joined by “and”; a condition that tells them apart may be missing. Identical values can stand only once. One block for each binder: values may come before it.

Tests used:
Conditions in all cases: both partners purified
[1] = molecular target: T1, human aquaporin-4 (AQP4) isoform M1, full length, tetramer in MSP1E3D1 lipid nanodiscs (human, UniProt P55087-1); assay: cryo-EM structure; AQP4 M1 in nanodiscs (0.3 uM) mixed with ~5-fold molar excess of Fab58; no symmetry imposed; 2.5 A
T1 construct: aquaporin-4, human, isoform M1, full length (residues 1 to 323); synthesized gene in pPICZ; a thrombin cleavage site lies between the tags and the protein; Homo-tetramer embedded in a nanodisc (soybean polar lipids, MSP1E3D1); for BLI the MSP 1E3D1 was biotinylated; also called AQP4 M1; M1 tetramer; not shown: 8xHis, N-terminal, kept
T1 sequence (P55087 whole entry, the tested form may be a part, canonical isoform): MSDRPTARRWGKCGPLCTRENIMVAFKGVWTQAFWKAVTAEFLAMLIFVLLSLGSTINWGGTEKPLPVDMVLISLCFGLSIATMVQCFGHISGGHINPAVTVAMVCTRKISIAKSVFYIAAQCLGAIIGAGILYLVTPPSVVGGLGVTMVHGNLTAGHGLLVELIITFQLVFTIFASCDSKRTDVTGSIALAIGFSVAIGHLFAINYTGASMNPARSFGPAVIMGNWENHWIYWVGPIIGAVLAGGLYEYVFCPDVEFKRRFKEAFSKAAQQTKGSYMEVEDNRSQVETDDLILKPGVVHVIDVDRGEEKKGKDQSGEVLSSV

[2] = molecular target: T1, human aquaporin-4 (AQP4) isoform M1, …; assay: cryo-EM 2D classification; AQP4 M1 in nanodiscs mixed with 30-fold molar excess of Fab186; severe orientation bias, no high-resolution map
[3] = molecular target: T2, human aquaporin-4 (AQP4) isoform M1, full length, tetramer in detergent (human, UniProt P55087-1); assay: cryo-EM structure; AQP4 in detergent, 18 uM, mixed with ~75 uM Fab186; ~12 uM AQP4 on grids; no symmetry imposed; 2.9 A
T2 construct: aquaporin-4, human, isoform M1, full length (residues 1 to 323); synthesized gene in pPICZ; The purification protocol says the N-terminal tag was cleaved by thrombin; also called AQP4 M1; AQP4 in detergent; source: Pichia pastoris X-33 (strain MG3), purified in DDM (Ni-NTA, thrombin cleavage, cobalt resin, SEC Superdex 200); not shown: 8xHis, N-terminal, cleaved
T2 sequence (P55087 whole entry, the tested form may be a part, canonical isoform): as above

stoichiometry N [1]: 1 Fab per AQP4 tetramer
B1: Fab58, Fab fragment of patient-derived NMO recombinant antibody rAb58 (Fab, V domains shown)
VH: QVQLVESGGGLVQPGGSLRLSCAASGFTFRGYAMNWVRQAPGKGLEWVASISGSGSITQYADSAKGRFTITRDNSKSTLYAHVSSLRADDTAVYYCAKGDYVFDYWGQGTLVTVSS
VL: DIQMTQSPSALSASVGDTVTITCRASQSIRSWLAWYQQKPGKAPKLLIYKASDLQSGVPSRFSGSGSGTDFTLTISGLQPDDFATYYCQHYNSYPYTFGQGTKVEIR
notes: heavy chain (HC) of Fab58 in the deposited model PDB 8V91; light chain (LC) of Fab58 in the deposited model PDB 8V91; also called rAB58 Fab; source: rAb58 IgG from Expi293F (MabSelect purified), papain cleavage (Pierce Fab kit), Fc removed with Protein A agarose

stoichiometry N [2]: 4 Fab per AQP4 tetramer
stoichiometry N [3]: ≤ 4 Fab per AQP4 tetramer and 3 Fab per AQP4 tetramer
B2: Fab186, Fab fragment of patient-derived NMO recombinant antibody rAb186 (Fab, V domains shown)
VH: QVQLQESGPGLVKPSQTLPLTCTVSGGYISSGSHQWGWIRQPAGKGLEWIGRIYTSGSTNYNPSLKSRVTISVDTSKNQFSLKLSSVTAADTAVYYCARVNYDLLTGRANFFDPWGQGTPVTVSS
VL: EIVLTQSPGTLSLSPGERATLSCRASQSVSSRSVAWYQQKPGQAPRLLIYGASNRATGIPDRFSGSGSGTDFTLTISRLEPEDFVVFYCQQYGSSPLTFGGGTKVEIK
notes: heavy chain (HC) of Fab186 in the deposited model PDB 8V9D; light chain (LC) of Fab186 in the deposited model PDB 8V9D; also called rAB186 Fab; source: rAb186 IgG from Expi293F (MabSelect purified), papain cleavage (Pierce Fab kit), Fc removed with Protein A agarose
